Assay results as given in US20200376136A1 (Regeneron, published 2020).
Changes are numbered by the printed parent chain.

T1: human six-transmembrane epithelial antigen of prostate 2 (STEAP2) (human, UniProt Q8NFT2 1-490)
T1 sequence: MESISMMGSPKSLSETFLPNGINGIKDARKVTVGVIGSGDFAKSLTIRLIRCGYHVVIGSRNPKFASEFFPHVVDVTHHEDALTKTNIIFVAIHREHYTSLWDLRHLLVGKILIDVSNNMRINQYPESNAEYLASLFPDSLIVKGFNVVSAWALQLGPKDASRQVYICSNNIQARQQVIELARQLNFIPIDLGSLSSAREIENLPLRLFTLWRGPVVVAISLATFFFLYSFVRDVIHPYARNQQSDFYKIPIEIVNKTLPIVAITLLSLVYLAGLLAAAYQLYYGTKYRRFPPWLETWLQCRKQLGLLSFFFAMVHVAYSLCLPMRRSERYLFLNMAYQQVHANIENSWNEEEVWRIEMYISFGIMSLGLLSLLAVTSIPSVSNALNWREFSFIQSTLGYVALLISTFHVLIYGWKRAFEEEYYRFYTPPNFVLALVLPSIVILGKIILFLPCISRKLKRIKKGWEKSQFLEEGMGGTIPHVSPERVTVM

B1: CD3-VH-G (antibody, V domains shown)
VH: EVQLVESGGGLVQPGRSLRLSCAASGFTFDDYSMHWVRQAPGKGLEWVSGISWNSGSKGYADSVKGRFTISRDNAKNSLYLQMNSLRAEDTALYYCAKYGSGYGKFYHYGLDVWGQGTTVTVSS
VL: DIQMTQSPSSLSASVGDSVTITCRASQSINNYLNWYQQKPGKAPKLLIYTASSLLSGVPSRFSGSGSGTDFTLTISGLHPEDFATYFCQQSFSTPPITFGQGTRLDIK
notes: CD3-VH-P engineered to germline frameworks
B2: BSSTEAP2/CD3-004 (bispecific antibody, IgG4, V domains shown)
VH 1: QVQLVESGGGVVQPGRSLRLSCVASGFTISSYGMNWVRQAPGKGLEWVAVISYDGGNKYSVDSVKGRFTISRDNSKNTLYLQMNSLRAEDSAVYYCARGRYFDLWGRGTLVTVSS
VH 2: EVQLVESGGGLVQPGRSLRLSCAASGFTFADYTMHWVRQGPGTGLEWVSDIGWSGGSLGYADSVKGRFTISRDNAKNSLYLEMNNLRPEDTALYYCVKDKSGYGKFQYGLDVWGQGTTVTVSS
VL: DIQMTQSPSTLSASVGDRVTITCRASQSISSWLAWYQQKPGRAPNLLISKASSLKSGVPSRFSGSGSGTEFTLTVSSLQPDDFATYYCQQYYSYSYTFGQGTKLEIK
B3: BSSTEAP2/CD3-005 (bispecific antibody, IgG4, V domains shown)
VH 1: QVQLQQSGPGLVKPSQTLSLTCAISGDSVSSNRAAWNWIRQSPSRGLQWLGRTYYRSKWYNDYAVSLRSRITINPVTSKNQVALHMNSVTPEDTAVYYCARAGIVVVPGPETFYYYDHGLDVWGQGTTVTVSS
VH 2: QVQLVESGGGLVHPGRSLRLSCAASGFKFDDYTMHWVRQAPGKGLEWVSDISWNSGSKGYADSVKGRFTISRDNAKDSLYLQMDSLRAADTAFYYCAKDKSGYGHFYYYAMDVWGQGTTVTVSS
VL: DIQMTQSPSSLSASVGDRVTITCRASQSIRSYLNWYQQKPGKAPELLIHAASSLQSGVPSRFSGSGSGTDFTLTISSLQPEDFASYYCQQSYSAPPITFGQGTRLEIK
B4: BSSTEAP2/CD3-007 (bispecific antibody, V domains shown)
VH 1: B3 VH 1
VH 2: EVQLVESGGGLVQPGRSLRLSCAASGFTFADYTMHWVRQAPGKGLEWVSDISWNSGSIAYADSVKGRFTISRDNAKNSLYLQMNSLRTEDTAFYYCAKDSRGYGHYKYLGLDVWGQGTTVTVSS
VL: B3 VL
B5: BSSTEAP2/CD3-001 (bispecific antibody, IgG4, V domains shown)
VH 1: B3 VH 1
VH 2: B1 VH
VL: B3 VL
B6: BSSTEAP2/CD3-008 (bispecific antibody, IgG4, V domains shown)
VH 1: QVQLQQSGPGLVKPSQALSLTCAISGDSVSSNSAAWNWIRQSPSRGLEWLGRTYYRSKWYNDYAVSVKSRITINPDTSKNHFSLHLNSMTPEDTAVYYCARARIVVVPGPEVYYYYYYDMDVWGQGTTVTVSS
VH 2: B3 VH 2
VL: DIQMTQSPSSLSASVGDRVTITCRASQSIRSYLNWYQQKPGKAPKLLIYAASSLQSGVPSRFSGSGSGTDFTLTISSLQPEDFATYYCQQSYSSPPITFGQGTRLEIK
B7: BSSTEAP2/CD3-009 (bispecific antibody, IgG4, V domains shown)
VH 1: B3 VH 1 with A23V, S31T, R33S, Q48E, L67V, M86L, F113Y, D117Y
VH 2: B3 VH 2
VL: B3 VL with S28N, E45K, A50V, S85T, A94T, Q101H
B8: BSSTEAP2/CD3-006 (bispecific antibody, V domains shown)
VH 1: B3 VH 1
VH 2: B1 VH with A23V, G59D
VL: B3 VL
B9: CD3-VH-P (antibody, V domains shown)
VH: B1 VH with A23V, G59D
VL: B1 VL
notes: Anti-CD3 antibody from a genetically modified mouse
B10: H1M11243N (antibody, mouse IgG1, V domains shown)
VH: B6 VH 1 with A17T, H81Q, M89V, R103G, E111D, V112I, D119G
VL: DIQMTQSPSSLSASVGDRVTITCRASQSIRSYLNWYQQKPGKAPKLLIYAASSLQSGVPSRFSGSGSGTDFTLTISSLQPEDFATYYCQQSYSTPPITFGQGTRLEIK
B11: H2M11163N (antibody, mouse IgG2, V domains shown)
VH: B6 VH 1
VL: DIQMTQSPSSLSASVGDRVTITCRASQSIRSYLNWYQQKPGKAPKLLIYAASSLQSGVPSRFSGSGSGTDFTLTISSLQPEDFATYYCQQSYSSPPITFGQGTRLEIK
B12: H2M11164N (antibody, mouse IgG2, V domains shown)
VH: B3 VH 1 with A23V, S31T, R33S, Q48E, L67V, M86L, F113Y, D117Y
VL: B3 VL with S28N, E45K, A50V, S85T, A94T, Q101H
B13: H2M11162N (antibody, mouse IgG2, V domains shown)
VH: B3 VH 1
VL: B3 VL

target: T2, human CD3 (human, UniProt P07766 23-207; P04234 22-171); experiment: FACS assays
T2 construct: As expressed on Jurkat cells or human T cells within the T cell receptor complex; also called hCD3
T2 sequence (P07766 23-207 limits assumed, chain 1 of 2): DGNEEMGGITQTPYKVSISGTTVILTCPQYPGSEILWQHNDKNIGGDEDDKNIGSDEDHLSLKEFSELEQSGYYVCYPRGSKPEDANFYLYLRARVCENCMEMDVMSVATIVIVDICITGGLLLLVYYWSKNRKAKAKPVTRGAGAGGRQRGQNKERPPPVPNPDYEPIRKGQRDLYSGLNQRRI
T2 sequence (P04234 22-171 limits assumed, chain 2 of 2): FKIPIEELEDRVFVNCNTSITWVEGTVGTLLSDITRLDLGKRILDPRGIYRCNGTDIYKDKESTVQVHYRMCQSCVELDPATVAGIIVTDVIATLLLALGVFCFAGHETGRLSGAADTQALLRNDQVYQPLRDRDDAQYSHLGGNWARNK

Binder | binding result
B1 | binds

target: T2, human CD3; experiment: cell-based or functional assay

Binder | hPBMC Proliferation [M] (EC50, with anti-CD28)
B2 | 7.1e-13 M
B3 | 2.76e-12 M
B4 | 8.26e-11 M
B5 | 1.6e-10 M
B6 | 7.76e-12 M
B7 | 3.68e-13 M
B8 | 8.14e-13 M

target: T1, human six-transmembrane epithelial …; experiment: cell-based or functional assay

Binder | C4-2 cells depletion EC50
B2 | 0.00311 nM
B3 | 0.00729 nM
B4 | 0.00811 nM
B5 | 0.00468 nM
B6 | 0.00411 nM
B7 | 0.00273 nM
B8 | 0.00393 nM

target: T2, human CD3; experiment: cell-based or functional assay; remark: another data set of the same source

Binder | T cells activation EC50 [M] (CD69+ of CD2+ T cells)
B2 | 9.4e-13 M
B5 | 1.61e-12 M

target: T2, human CD3; experiment: FACS titration of Jurkat cells

Binder | EC50
B9 | 1 to 40 nM

target: T2, human CD3; experiment: FACS titration on Jurkat cells (human CD3)
Procedure: (§1) Flow cytometric analysis was utilized to determine binding of STEAP2×CD3 bispecific antibodies to Jurkat, PC3_STEAP2/1 chimeric and cynomolgus T cells, followed by detection with a phycoerythrin (PE)-labeled anti-human IgG antibody. […] After incubation, the cells were washed twice with cold PBS containing 1% filtered FBS and a PE-conjugated anti-human secondary antibody was added to the cells and incubated for an additional 30 minutes. Wells containing no antibody or secondary antibody only were used as a control. After incubation, cells were washed, re-suspended in 200 μL cold PBS containing 1% filtered FBS and analyzed by flow cytometry on a BD FACS Canto II.

Binder | EC50
B2 | 0.688 nM
B3 | 14.1 nM
B4 | 0.615 nM
B5 | 7.19 nM
B6 | 1.52 nM
B7 | 4.14 nM
B8 | 3.98 nM

target: T3, STEAP2/1 chimeric construct; experiment: FACS titration on PC3 cells expressing the STEAP2/1 chimera
T3 construct: Expressed on engineered PC3 human prostate cancer cells; also called PC3_STEAP2/1
Procedure: as §1

Binder | EC50
B2 | 79.1 nM
B3 | 31.8 nM
B4 | 5.37 nM
B5 | 3.44 nM
B6 | 68.8 nM
B7 | 42.1 nM
B8 | 12.2 nM

target: T1, human six-transmembrane epithelial …; experiment: FACS titration on C4-2 cells (endogenous STEAP2), 4-parameter fit
Procedure: (§2) Briefly, 1×10⁵ cells were incubated with 10 μg/ml of anti STEAP2 antibodies, or isotype control antibodies for 30 min on ice in antibody dilution buffer. Following one wash with antibody dilution buffer, cells were incubated with 10 μg/ml of PE conjugated anti-human or antimouse Fc secondary antibodies for 30 min on ice. Following one additional wash, samples were incubated with Cytofix (1% formaldehyde) for 20 minutes. After one final wash, samples were filtered through a Pall 96 well filtration block, run on a Hypercyt® cytometer and analyzed in ForeCyt™ (IntelliCyt, Albuquerque, N. Mex.). Mean fluorescence intensities (MFI) were expressed as fold change above unstained levels (background). The average fold above background at antibody concentrations of 100-300 nM were determined.

Binder | EC50
B10 | 23 nM
B11 | 13 nM
B12 | 3.7 nM
B13 | 4.9 nM

target: T1, human six-transmembrane epithelial …; experiment: FACS on C4-2 cells (endogenous STEAP2), MFI fold above unstained, average at 100-300 nM antibody
Procedure: as §2

Binder | Avg F.A.B (fold above background)
B10 | 116 fold above background
B11 | 256 fold above background
B12 | 360 fold above background
B13 | 365 fold above background
